For this series, the target named is T1, rOmpR (OmpR-6xHis) (Klebsiella pneumoniae ATCC43816?) (UniProt A6TF28).
T1 sequence: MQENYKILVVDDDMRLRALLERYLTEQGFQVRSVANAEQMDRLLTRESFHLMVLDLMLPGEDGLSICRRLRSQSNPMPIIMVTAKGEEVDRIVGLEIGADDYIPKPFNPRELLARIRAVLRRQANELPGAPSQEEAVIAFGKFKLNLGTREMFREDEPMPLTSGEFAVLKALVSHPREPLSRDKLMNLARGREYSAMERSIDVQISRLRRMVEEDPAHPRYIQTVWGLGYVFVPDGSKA
Description: EMSA.

Turning to “ACAGAACGCTGAAATGCACGGAAAGTTGTCCGTTGGAAAATAATTAAACATTTATTCACTATTTTGCTACTTATTGTTTGAAATCACGGGGCGTCACCGTATAATTTGTCCGCTTTTTGATGCTTGACTCTTCGTCTTAAAGGACGTTTTATACGACACGCGACATACCTCAAAGGGAGCAGG (double strand) [Patp2]”, the binding entry is “no binding”.

The values are drawn from paper PMC10269446.
